# What was measured:
# [1] = test system: HeLa cells; assay: Flow cytometry of intracellular delivery of ZsGreen cargo; type: cell-based; conditions: Hela cells, 10, 20 or 50 μM, 4 hours
# Method: Hela cells were inoculated onto a 24-well plate (10^5 cells/well) and cultured in a DMEM medium containing 10% FBS for 24 hours. After washing with PBS, the cells were treated with ZsGreen or the CPP22-ZsGreen fusion protein at 0, 10, 20 or 50 μM for 4 hours. Then, after washing the cells twice with PBS and incubating with trypsin (1 mg/mL) for 15 minutes, the peptides bound to the cell surface were removed. The cells were centrifuged at 1,200 rpm for 5 minutes, washed twice with PBS, and then suspended in a PBS buffer containing 10% non-enzymatic cell dissociation solution. The fluorescence intensity of the internalized peptide was measured using a BD LSR II flow cytometer (BD Biosciences, USA).
# [2] = test system: HeLa cells; assay: Confocal microscopy of intracellular delivery of ZsGreen cargo; type: cell-based; conditions: 50 μM, 30 minutes
# Method: A DMEM medium containing 10% FBS was prepared on an 8-well Lab-Tek II chamber slide (Thermo Fisher Scientific, USA). Hela cells were dispensed in each well at a density of 10^4 cells/well and cultured for 24 hours. The cells were washed twice with PBS and then cultured for 30 minutes after replacing the medium with one containing 50 μM of the ZsGreen or the CPP22-ZsGreen fusion protein. The cells were washed with PBS, treated with DAPI, and then washed with PBS after reaction for 5 minutes (for observation of cell nuclei). Then, the stained cells were observed by confocal microscopy.
# [3] = test system: wild-type IIB (RRE IIB WT); assay: EMSA with 32P-labeled wild-type IIB and mutant IIB; type: binding, HIV-1
# Method: A peptide (sample) and ^32P-labeled RNA were mixed with a binding buffer (10 mM HEPES (pH 7.5), 100 mM KCl, 1 mM MgCl2, 0.5 mM EDTA, 10% glycerol and […] yeast tRNA). After serially diluting the peptide with the binding buffer, RNA (10 pM) of the same volume was added. The resulting mixture was incubated at room temperature for 30 minutes and electrophoresis was conducted at 4° C. on 10% polyacrylamide gel. The […] was visualized with FLA-7000 Phosphor Imager (GE Healthcare Life Sciences, USA) and analyzed using the Multi Gauge software.
# In order to analyze the binding affinity of cRev for IIB RNA, the /Rev of Preparation Example 1 or the cRev of Preparation Example 2 was mixed with ^32P-labeled wild-type IIB and ^32P-labeled mutant IIB, respectively, and analyzed by EMSA (electrophoretic mobility shift assay). The mutation of IIB is the mutation in the G46-C74 base pairs of wild-type IIB.
# [4] = molecular target: IIB RNA; assay: Fluorescence anisotropy analysis of cRev with Cy3-labeled IIB RNA; type: binding, HIV-1; conditions: Cy3-IIB RNA 250 nM, room temperature, pH 6.0; read-out: Kd (dissociation constant) for the interaction with IIB RNA
# Method: IIB RRE labeled with […] Cy3 was dissolved in a binding buffer (25 mM sodium phosphate, 50 mM NaCl, pH 6.0). The peptide (sample) of various concentrations was sequentially added to 250 nM RNA. The final concentration of the peptide was 600 nM. After the mixing, the sample was incubated for 1 minute. There was 1-minute incubation time between all the steps. All the experiments were performed at room temperature. The dissociation constant (Kd) was calculated using the Origin software.
# In order to analyze the function of cRev, the cRev of Preparation Example 2 was mixed with Cy3-labeled IIB RNA and then fluorescence anisotropy analysis was performed.
Molecule,intracellular delivery (flow cytometry) [1],intracellular delivery (confocal microscopy) [2],binding affinity for wild-type IIB compared with /Rev ([3]; wild-type IIB (RRE IIB WT)),recognition of IIB RNA (EMSA) ([3]; wild-type IIB versus mutant IIB),Kd [4]
"ZsGreen: green fluorescent protein, expressed from bacterial cells, used as a comparative example (protein) MAQSKHGLTKEMTMKYRMEGCVDGHKFVITGEGIGYPFKGKQAINLCVVEGGPLPFAEDILSAAFMYGNRVFTEYPQDIADYFKNSCPAGYTWDRSFLFEDGAVCICNADITVSVEENCMYHESKFYGVNFPADGPVMKKMTDNWEPSCEKIIPVPKQGILKGDVSMYLLLKDGGRLRCQFDTVYKAKSVPRKMPDWHFIQHKLTREDRSDAKNQKWHLTEHAIASGSALP",no intracellular delivery was observed,not delivered into the cells,,,
"CRGGDEDALKAARAIKFLYQSNPPPNPEGTRQARRNRRRRWRERQRQIHSASERIASTLGGMRM (protein, cyclized via intein; The peptide is circular., cyclic, oligomerization-defective Rev N-terminal domain protein made by intein-mediated cyclization) CRGGDEDALKAARAIKFLYQSNPPPNPEGTRQARRNRRRRWRERQRQIHSASERIASTLGGMRM",,,significantly higher binding affinity,specifically recognizes IIB RNA,34 nM
CPP22-ZsGreen: fusion protein wherein CPP22 is fused with the ZsGreen protein (protein) GSHMASAAAQARRNAAAQARRNAAAQARRNAAAQARRNAAAQARRNAAAGSGSGSGSGPVATMAQSKHGLTKEMTMKYRMEGCVDGHKFVITGEGIGYPFKGKQAINLCVVEGGPLPFAEDILSAAFMYGNRVFTEYPQDIADYFKNSCPAGYTWDRSFLFEDGAVCICNADITVSVEENCMYHESKFYGVNFPADGPVMKKMTDNWEPSCEKIIPVPKQGILKGDVSMYLLLKDGGRLRCQFDTVYKAKSVPRKMPDWHFIQHKLTREDRSDAKNQKWHLTEHAIASGSALP,delivered to and accumulated in the cells at a significantly high level,successfully delivered into and accumulated in the cells at a significant level,,,

# Reference: US20240368230A1, “CELL-PENETRATING PEPTIDES COMPRISING MULTIPLE 5-MER ALPHA-HELIX FRAGMENTS AND USES THEREOF” (ArtProBio Co., Ltd., priority 2023, published 2024)
